Experimental data: the supplement of paper PMC6755084

B1: F1*; the commonest letter at each place (parent)
chain: GAGACCGCAACTGAAAAGTTGTTATCACTTGTCGTAAGACACTTTGGATGGGTTGAAGTTCTGCACGTAGAAGCAAAAGGC

Variants of: B1
Test: fraction ligated after 30 min (ligated reads / total reads); higher = more ligase activity
Conditions: with F1*sub RNA substrate (template-directed ligation), 42 °C
Procedure, shortened: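 Templates from an oligo pool were PCR-amplified, transcribed with T7 and gel-purified to give the ribozyme variants. Ligated and unligated products were separated on gel, reverse transcribed using barcoded primers, and read on a MiSeq. A quality filter of ≥20 was applied to core bases. Fraction ligated was taken as ligated reads as a share of all reads per variant.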

Row | Variant | fraction ligated
1 | T32C T45C | 0.217
2 | T32C T45G | 0.109
3 | T32C T45A | 0.726
4 | T32A T49A | 0.568
5 | T32A T49G | 0.618
6 | T32A T49C | 0.223
7 | T32C C40G | 0.743
8 | T32C C40A | 0.771
9 | T32C C40T | 0.786
10 | T32A T43G | 0.789
11 | T32A T43A | 0.831
12 | T32A T43C | 0.812
13 | G31T G50A | 0.0382
14 | G31T G50C | 0.0159
15 | G31T G50T | 0.103
16 | G31T C40T | 0.829
17 | G31T C40A | 0.827
18 | G31T C40G | 0.83
19 | T32G T43C | 0.81
20 | T32G T43G | 0.792
21 | T32G T43A | 0.812
22 | T32G G47T | 0.0926
23 | T32G G47C | 0.0306
24 | T32G G47A | 0.556

Row | Variant | fraction ligated
25 | T32C C33A | 0.863
26 | T32C C33T | 0.849
27 | T32C C33G | 0.797
28 | T32C | 0.803
29 | T32A | 0.842
30 | T32G | 0.828
31 | T32C G38C | 0.777
32 | T32C G38A | 0.794
33 | T32C G38T | 0.768
34 | C33A T35G | 0.866
35 | C33A T35A | 0.879
36 | C33A T35C | 0.85
37 | C33G A37C | 0.824
38 | C33G A37G | 0.847
39 | C33G A37T | 0.853
40 | T32G T45C | 0.346
41 | T32G T45G | 0.0918
42 | T32G T45A | 0.748
43 | T32A A56C | 0.574
44 | T32A A56G | 0.808
45 | T32A A56T | 0.82
46 | C33A G50A | 0.343
47 | C33A G50C | 0.0908
48 | C33A G50T | 0.627

Row | Variant | fraction ligated
49 | T32C A36T | 0.803
50 | T32C A36G | 0.786
51 | T32C A36C | 0.795
52 | T32G T44A | 0.807
53 | T32G T44G | 0.821
54 | T32G T44C | 0.795
55 | T32G T35G | 0.831
56 | T32G T35A | 0.814
57 | T32G T35C | 0.802
58 | C33G G47C | 0.108
59 | C33G G47A | 0.791
60 | C33G A48G | 0.793
61 | C33G A48T | 0.0603
62 | C33G A48C | 0.727
63 | C33G G34T | 0.856
64 | C33G G34A | 0.829
65 | C33G G34C | 0.843
66 | T32G G55C | 0.63
67 | T32G G55T | 0.798
68 | T32G G55A | 0.803
69 | G31T G47T | 0.022
70 | G31T G47A | 0.246
71 | G31T G47C | 0.0376
72 | T32G A48G | 0.75

Row | Variant | fraction ligated
73 | T32G A48T | 0.143
74 | T32G A48C | 0.401
75 | T32C G47A | 0.669
76 | T32C G47C | 0.0784
77 | T32C G47T | 0.103
78 | G31T G34C | 0.771
79 | G31T G34T | 0.793
80 | G31T G34A | 0.775
81 | C33G C42T | 0.833
82 | C33G C42A | 0.826
83 | C33G C42G | 0.853
84 | G31T T32C | 0.816
85 | G31T T32G | 0.826
86 | G31T T32A | 0.835
87 | C33A A57C | 0.834
88 | C33A A57T | 0.849
89 | C33A A57G | 0.868
90 | T32A A48G | 0.749
91 | T32A A48T | 0.0494
92 | T32A A48C | 0.727
93 | G31T T45A | 0.387
94 | G31T T45G | 0.0586
95 | G31T T45C | 0.116
96 | C33A G46C | 0.797

Row | Variant | fraction ligated
97 | C33A G46T | 0.803
98 | C33A G46A | 0.84
99 | C33A G47T | 0.219
100 | C33A G47C | 0.109
101 | C33A G47A | 0.745
102 | T32A G55A | 0.817
103 | T32A G55T | 0.826
104 | T32A G55C | 0.562
105 | C33G A41G | 0.791
106 | C33G A41C | 0.822
107 | C33G A41T | 0.789
108 | C33A T49A | 0.725
109 | C33A T49C | 0.37
110 | C33A T49G | 0.739
111 | C33G A56C | 0.837
112 | C33G A56G | 0.793
113 | C33G A56T | 0.867
114 | C33G A36T | 0.825
115 | C33G A36G | 0.821
116 | C33G A36C | 0.796
117 | T32G A36G | 0.813
118 | T32G A36T | 0.823
119 | T32G A36C | 0.798
120 | T32C G46A | 0.763

Row | Variant | fraction ligated
121 | T32C G46C | 0.717
122 | T32C G46T | 0.729
123 | C33A G38A | 0.857
124 | C33A G38C | 0.832
125 | C33A G38T | 0.86
126 | C33A C40A | 0.853
127 | C33A C40G | 0.849
128 | C33A C40T | 0.849
129 | G31T G46T | 0.769
130 | G31T G46A | 0.79
131 | G31T G46C | 0.681
132 | T32A A39G | 0.832
133 | T32A A39C | 0.837
134 | T32A A39T | 0.827
135 | T32C A41T | 0.776
136 | T32C A41G | 0.709
137 | T32C A41C | 0.755
138 | C33A G34C | 0.805
139 | C33A G34A | 0.834
140 | C33A G34T | 0.843
141 | C33A A36G | 0.824
142 | C33A A36C | 0.844
143 | C33A A36T | 0.868
144 | T32C C42A | 0.826

Row | Variant | fraction ligated
145 | T32C C42G | 0.806
146 | T32C C42T | 0.842
147 | T32G C42A | 0.845
148 | T32G C42G | 0.837
149 | T32G C42T | 0.846
150 | T32G C40T | 0.836
151 | T32G C40A | 0.825
152 | T32G C40G | 0.813
153 | G31T T35G | 0.803
154 | G31T T35C | 0.782
155 | G31T T35A | 0.797
156 | T32C T35C | 0.829
157 | T32C T35A | 0.811
158 | T32C T35G | 0.808
159 | C33A C42G | 0.84
160 | C33A C42T | 0.872
161 | C33A C42A | 0.879
162 | T32A A57T | 0.821
163 | T32A A57G | 0.859
164 | T32A A57C | 0.821
165 | T32C G34A | 0.796
166 | T32C G34C | 0.772
167 | T32C G34T | 0.759
